Measured values: US11198713B2, “Agents modulating beta-catenin functions and methods thereof” (FOG PHARMACEUTICALS, INC., priority 2017, dated 2021)
Numbered stars: 1 amine (or outer) side, 2 acyl side, 3 side chain; on linkers, the order of the positions; unused ones are H or OH. Bridge positions count the residues as written; N and C are the ends. Square brackets hold non-standard residues; d marks the D form. Primed or numbered codes have the meaning given here. MB(10) = Monomer B = PyrS, pyrrolidine stapling residue with allyl carbamate, (S)-3-amino-1-(allyloxycarbonyl)pyrrolidine-3-carboxylic acid, C=CCOC(=O)N1CC[C@@](N[*:1])(C(=O)[*:2])C1; MB(8) = Monomer B (PyrS), pyrrolidine stapling residue bearing N-allyl carbamate (Alloc), forms carbamate staple with R8 by ring-closing olefin metathesis, i to i+7; MB(9) = Monomer B (PyrS), pyrrolidine stapling residue with N-allyloxycarbonyl (Alloc), forms a carbamate staple with R8 by olefin metathesis; MB″ = Monomer B (PyrS), pyrrolidine stapling residue with N-allyl carbamate, forms carbamate staple with R8 by olefin metathesis; MB(6) = Monomer B (PyrS), N-Alloc pyrrolidine stapling residue, forms carbamate staple with R8 by olefin metathesis; 2Pal = N[C@@H](Cc1ccccn1)C(=O)O; R8 = C=CCCCCCC[C@@](C)(N)C(=O)O; Cha = N[C@@H](CC1CCCCC1)C(=O)O; Cba = N[C@@H](CC1CCC1)C(=O)O; Nva = CCC[C@H](N)C(=O)O

T1: full-length beta-catenin (UniProt P35222 2-781, limits assumed)
T1 construct: mature; also called full-length ß-Catenin; β-catenin
T1 sequence (looked up): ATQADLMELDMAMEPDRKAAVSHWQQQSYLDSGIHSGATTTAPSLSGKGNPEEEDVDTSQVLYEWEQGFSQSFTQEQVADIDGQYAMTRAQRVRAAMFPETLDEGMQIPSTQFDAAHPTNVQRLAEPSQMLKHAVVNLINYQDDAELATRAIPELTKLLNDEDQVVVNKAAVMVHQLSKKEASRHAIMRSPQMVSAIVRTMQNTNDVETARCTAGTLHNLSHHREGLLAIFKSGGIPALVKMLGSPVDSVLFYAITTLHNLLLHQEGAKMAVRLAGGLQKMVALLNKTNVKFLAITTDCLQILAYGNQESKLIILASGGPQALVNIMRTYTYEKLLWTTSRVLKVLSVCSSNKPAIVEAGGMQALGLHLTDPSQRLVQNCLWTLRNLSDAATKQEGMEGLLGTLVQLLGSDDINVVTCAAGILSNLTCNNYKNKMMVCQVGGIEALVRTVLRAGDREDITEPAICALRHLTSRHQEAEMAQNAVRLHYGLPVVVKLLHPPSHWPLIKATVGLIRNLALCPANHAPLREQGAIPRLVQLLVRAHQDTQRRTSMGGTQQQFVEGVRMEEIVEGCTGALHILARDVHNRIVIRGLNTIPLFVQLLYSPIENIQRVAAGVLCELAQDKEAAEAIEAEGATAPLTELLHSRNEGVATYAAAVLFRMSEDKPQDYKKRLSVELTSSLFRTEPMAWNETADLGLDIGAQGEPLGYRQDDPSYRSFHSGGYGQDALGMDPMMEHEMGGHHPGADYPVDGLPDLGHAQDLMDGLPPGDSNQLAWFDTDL


Target: T1, full-length beta-catenin
Test: competition FP; NB = no binding detected
Procedure: In some embodiments, a competition fluorescence polarization assay is used to assess binding of provided compounds to beta-catenin. In an exemplary procedure, solutions of provided compounds, e.g., provided stapled peptides, were prepared in a buffer (e.g., 50 mM Tris pH 8.0, 250 mM NaCl, 2% glycerol, 0.5 mM EDTA, 0.02% w/v sodium azide) using a 3-fold serial dilution from 5 µM. Probe solution (15 nM full-length ß-Catenin, 20 nM FITC labeled peptide in buffer) was prepared and incubated for a period of time, e.g., 5 minutes, and the a volume, e.g., 40 µL per well plated in suitable plate, e.g., a black polystyrene 384-well plate (Corning). Equal volume of the serial diluted peptide was added to the plate and incubated protected from light for 15 minutes prior to read. Reads were performed on a Spectramax M5 (Molecular Devices) in duplicate. Suitable probe was FITC-PEG1-PQ-S5-ILD-S5-HVRRVWR (SEQ ID NO: 1) (hydrocarbon staple formed by two S5 via olefin metathesis) and/or FITC-bA-PQ-S5-ILD-S5-HVRRVWR (SEQ ID NO: 3) (hydrocarbon staple formed by two S5 via olefin metathesis). […] Another peptide, FPO217c (Ac-AR_8ILDAHIM$B5$RVW (SEQ ID NO: 280), with N-terminal proline removed and valine replaced with isoleucine compared to FP0025c) was prepared.

Binder	binding result
Ac-A[R8]ILDA[2Pal]I[MB(10)]AVW-NH2 (staple 2-9; not fully specified; printed as Ac-A-R8-I-L-D-A-2pyr-I-MB-A-V-W-NH2) [FP0554c Isomer 1]	no binding
Ac-A[R8]ILDA[2Pal]I[MB(6)][Cha]VW-NH2 (staple 2-9; not fully specified; printed as Ac-A-R8-I-L-D-A-2pyr-I-MB-Cha-V-W-NH2) [FP0566c Isomer 1]	no binding
Ac-A[R8]ILDA[2Pal]I[MB″]WVW-NH2 (staple 2-9; not fully specified; printed as Ac-A-R8-I-L-D-A-2pyr-I-MB-W-V-W-NH2) [FP0563c Isomer 1]	no binding
Ac-A[R8]ILDA[2Pal]I[MB(8)]TVW-NH2 (staple 2-9; not fully specified; printed as Ac-A-R8-I-L-D-A-2pyr-I-MB-T-V-W-NH2) [FP0561c Isomer 2]	no binding
Ac-A[R8]ILDA[2Pal]I[MB(9)]NVW-NH2 (staple 2-9; not fully specified; printed as Ac-A-R8-I-L-D-A-2pyr-I-MB-N-V-W-NH2) [FP0558c Isomer 1]	no binding
Ac-A[R8]ILDA[2Pal]I[MB(10)]IVW-NH2 (staple 2-9; not fully specified; printed as Ac-A-R8-I-L-D-A-2pyr-I-MB-I-V-W-NH2) [FP0556c Isomer 2]	no binding
Ac-A[R8]ILDA[2Pal]I[MB(9)]LVW-NH2 (staple 2-9; not fully specified; printed as Ac-A-R8-I-L-D-A-2pyr-I-MB-L-V-W-NH2) [FP0557c Isomer 2]	no binding
Ac-A[R8]ILDA[2Pal]I[MB(10)]FVW-NH2 (staple 2-9; not fully specified; printed as Ac-A-R8-I-L-D-A-2pyr-I-MB-F-V-W-NH2) [FP0555c Isomer 1]	no binding
Ac-A[R8]ILDA[2Pal]I[MB″]YVW-NH2 (staple 2-9; not fully specified; printed as Ac-A-R8-I-L-D-A-2pyr-I-MB-Y-V-W-NH2) [FP0564c Isomer 1]	no binding
Ac-A[R8]ILDA[2Pal]I[MB(10)]FVW-NH2 (staple 2-9; not fully specified; printed as Ac-A-R8-I-L-D-A-2pyr-I-MB-F-V-W-NH2) [FP0555c Isomer 2]	no binding
Ac-A[R8]ILDA[2Pal]I[MB(6)][Nva]VW-NH2 (staple 2-9; not fully specified; printed as Ac-A-R8-I-L-D-A-2pyr-I-MB-Nva-V-W-NH2) [FP0567c Isomer 2]	no binding
Ac-A[R8]ILDA[2Pal]I[MB(6)][Nva]VW-NH2 (staple 2-9; not fully specified; printed as Ac-A-R8-I-L-D-A-2pyr-I-MB-Nva-V-W-NH2) [FP0567c Isomer 1]	no binding

Results, then the binder that gave them:

binding result	Binder
no binding	Ac-A[R8]ILDA[2Pal]I[MB″]YVW-NH2 (staple 2-9; not fully specified; printed as Ac-A-R8-I-L-D-A-2pyr-I-MB-Y-V-W-NH2) [FP0564c Isomer 2]
no binding	Ac-A[R8]ILDA[2Pal]I[MB(6)][Cba]VW-NH2 (staple 2-9; not fully specified; printed as Ac-A-R8-I-L-D-A-2pyr-I-MB-Cba-V-W-NH2) [FP0565c Isomer 2]
no binding	Ac-A[R8]ILDA[2Pal]I[MB(8)]VVW-NH2 (staple 2-9; not fully specified; printed as Ac-A-R8-I-L-D-A-2pyr-I-MB-V-V-W-NH2) [FP0562c Isomer 1]
no binding	Ac-A[R8]ILDA[2Pal]I[MB(8)]TVW-NH2 (staple 2-9; not fully specified; printed as Ac-A-R8-I-L-D-A-2pyr-I-MB-T-V-W-NH2) [FP0561c Isomer 1]
no binding	Ac-A[R8]ILDA[2Pal]I[MB(10)]AVW-NH2 (staple 2-9; not fully specified; printed as Ac-A-R8-I-L-D-A-2pyr-I-MB-A-V-W-NH2) [FP0554c Isomer 2]
no binding	Ac-A[R8]ILDA[2Pal]I[MB(8)]SVW-NH2 (staple 2-9; not fully specified; printed as Ac-A-R8-I-L-D-A-2pyr-I-MB-S-V-W-NH2) [FP0560c Isomer 2]
no binding	Ac-A[R8]ILDA[2Pal]I[MB(9)]LVW-NH2 (staple 2-9; not fully specified; printed as Ac-A-R8-I-L-D-A-2pyr-I-MB-L-V-W-NH2) [FP0557c Isomer 1]
no binding	Ac-A[R8]ILDA[2Pal]I[MB(9)]QVW-NH2 (staple 2-9; not fully specified; printed as Ac-A-R8-I-L-D-A-2pyr-I-MB-Q-V-W-NH2) [FP0559c Isomer 1]
no binding	Ac-A[R8]ILDA[2Pal]I[MB(8)]QVW-NH2 (staple 2-9; not fully specified; printed as Ac-A-R8-I-L-D-A-2pyr-I-MB-Q-V-W-NH2) [FP0559c Isomer 2]
no binding	Ac-A[R8]ILDA[2Pal]I[MB(10)]IVW-NH2 (staple 2-9; not fully specified; printed as Ac-A-R8-I-L-D-A-2pyr-I-MB-I-V-W-NH2) [FP0556c Isomer 1]
no binding	Ac-A[R8]ILDA[2Pal]I[MB(8)]VVW-NH2 (staple 2-9; not fully specified; printed as Ac-A-R8-I-L-D-A-2pyr-I-MB-V-V-W-NH2) [FP0562c Isomer 2]
no binding	Ac-A[R8]ILDA[2Pal]I[MB(9)]NVW-NH2 (staple 2-9; not fully specified; printed as Ac-A-R8-I-L-D-A-2pyr-I-MB-N-V-W-NH2) [FP0558c Isomer 2]
no binding	Ac-A[R8]ILDA[2Pal]I[MB(8)]SVW-NH2 (staple 2-9; not fully specified; printed as Ac-A-R8-I-L-D-A-2pyr-I-MB-S-V-W-NH2) [FP0560c Isomer 1]
no binding	Ac-A[R8]ILDA[2Pal]I[MB″]WVW-NH2 (staple 2-9; not fully specified; printed as Ac-A-R8-I-L-D-A-2pyr-I-MB-W-V-W-NH2) [FP0563c Isomer 2]
no binding	Ac-A[R8]ILDA[2Pal]I[MB″][Cba]VW-NH2 (staple 2-9; not fully specified; printed as Ac-A-R8-I-L-D-A-2pyr-I-MB-Cba-V-W-NH2) [FP0565c Isomer 1]
